Reference: article PMC2914609 (Nanomedicine (London, England), 2010)

Biological target: the molecule itself
Test: SEC

B1: Phage fusion 55-mer coat protein (pVIII coat fusion protein bearing the MCF-7-specific peptide DMPGTVLP) (designed binder)
chain: ADMPGTVLPDPAKAAFDSLQASATEYIGYAWAMVVVIVGATIGIKLFKKFTSKAS
stoichiometry N: 8
